First the molecules themselves.
T1: huBeta_Klotho (1-81, 523-1044) (muBetaKLOTHO 82-520) (human; murine, UniProt Q86Z14 1-1044)
T1 construct: Expressed on HEK-293T cells; also called Chimera 1; Construct 1
T1 chain: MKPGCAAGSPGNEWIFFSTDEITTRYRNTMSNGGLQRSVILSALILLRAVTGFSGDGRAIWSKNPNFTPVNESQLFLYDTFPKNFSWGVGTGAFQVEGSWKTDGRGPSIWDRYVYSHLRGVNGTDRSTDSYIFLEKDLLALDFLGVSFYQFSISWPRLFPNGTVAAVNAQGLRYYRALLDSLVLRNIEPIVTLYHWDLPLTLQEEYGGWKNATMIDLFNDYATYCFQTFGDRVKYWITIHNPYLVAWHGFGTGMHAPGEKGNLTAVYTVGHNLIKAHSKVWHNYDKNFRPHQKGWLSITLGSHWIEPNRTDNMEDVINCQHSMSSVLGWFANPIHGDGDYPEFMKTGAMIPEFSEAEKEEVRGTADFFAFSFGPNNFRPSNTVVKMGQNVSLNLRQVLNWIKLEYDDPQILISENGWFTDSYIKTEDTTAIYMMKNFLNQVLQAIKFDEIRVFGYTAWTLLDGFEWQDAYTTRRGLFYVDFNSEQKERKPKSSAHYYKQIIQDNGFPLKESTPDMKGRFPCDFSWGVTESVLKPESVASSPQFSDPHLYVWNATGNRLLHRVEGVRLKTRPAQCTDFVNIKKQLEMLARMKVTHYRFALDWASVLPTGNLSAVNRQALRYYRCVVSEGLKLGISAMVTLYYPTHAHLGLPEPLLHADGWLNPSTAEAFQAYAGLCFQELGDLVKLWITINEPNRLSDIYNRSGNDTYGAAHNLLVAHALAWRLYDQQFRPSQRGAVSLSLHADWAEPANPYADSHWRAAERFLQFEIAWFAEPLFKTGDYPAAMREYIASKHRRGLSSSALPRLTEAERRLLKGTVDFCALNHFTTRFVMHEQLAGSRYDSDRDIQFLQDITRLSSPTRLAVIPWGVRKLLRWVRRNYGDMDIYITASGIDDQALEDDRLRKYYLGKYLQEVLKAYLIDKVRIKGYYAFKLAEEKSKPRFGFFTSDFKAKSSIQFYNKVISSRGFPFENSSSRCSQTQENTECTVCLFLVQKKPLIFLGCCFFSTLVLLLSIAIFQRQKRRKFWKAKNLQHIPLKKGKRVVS

B1: 67F5.1 (antibody, V domains shown)
VH: QVQLKESGPGLVKPSETLSLTCTVSGGSISSYYWSWIRQPPGKGLEWIGYIYYSGNTNYNPSLKSRVTISVDTSKNQFSLKLSSVTAADTAVYYCAREYYYGSGSYYPWGQGTLVTVSS
VL: EIVMTQSPATLSVSPGERVTLSCRASQSVSSNLAWYQQKPGQAPRLLIHGSSNRAIGIPARFSGSGSGTEFTLTISSLQSADFAVYNCQQYEIWPWTFGQGTKVEIKR
B2: 51E5.1 (antibody, V domains shown)
VH: QVQLQQWGAGLLKPSETLSLTCAVYGGSFSGYYWSWIRQPPGKGLEWIGELDHSGSINYNPSLKSRVTISVDTSKNQFSLKLTSVTAADTAVYYCARVLGSTLDYWGQGTLVTVSS
VL: DIQMTQSPSSLSASVGDRVTITCRASQDIRNDLGWYQQKPGKAPNRLIYAASSLQFGVPSRFSGSGSGTEFTLTISSLQPEDFATYYCLQHSSYPLTFGGGTRVEIKR
B3: 66G2.1 (antibody, V domains shown)
VH: QVQLVESGGGVVQPGRSLRLSCAASGFTFSSYGMHWVRQAPGKGLEWVAGISYDGSNKNYADSVKGRITISRDNPKNTLYLQMNSLRAEDTAVYYCATTVTKEDYYYYGMDVWGQGTTVTVSS
VL: B2 VL with D28G, N45K, S53N, F56S, E70K, S76N, H91L, S92N, S93G, R103K
B4: 49G3.3 (antibody, V domains shown)
VH: QVTLKESGPVLVKPTETLTLTCTVSGFSLSNPRMGVSWIRQPPGKALEWLTHIFSNDEKSYSTSLKSRLTISKDTSKSQVVLSMTNMDPVDTATYYCVRVDTLNYHYYGMDVWGQGTTVTVSS
VL: DIQMTQSPSSLSASIGDRVTITCQASQGISNYLNWYQQKPGKAPKLLIYDASNLETGVPSRFSGSGSGTDFTFTISSLQPEDIATYYCHQYDDLPLTFGGGTKVEIRR
B5: 67C10.1 (antibody, V domains shown)
VH: EVQLVQSGAEVKKPGESLKISCQGSGYSFSSYWIGWVRQMPGKGLEWMGIIYPGDSDTRYSPSFQGQVTISADKSINTAYLQWSSLKASDTAIYYCARRASRGYRYGLAFAIWGQGTMVTVSS
VL: DFVMTQTPLSLPVTPGEPASISCRSSQSLLNSDDGNTYLDWYLQKPGQSPQLLIYTLSYRASGVPDRFSGSGSGTDFTLKISRVEAEDVGVYYCMQRIEFPITFGQGTRLEIKR
B6: 65C3.1 (antibody, V domains shown)
VH: B1 VH with K5Q, S54T, N56S
VL: EMVMTQSPATLSVSPGERATLSCRASQSVSSQLAWYQEKPGRAPRLLIYGASNRAIDIPARLSGSGSGTEFTLTISSLQSEDFAVYYCQQYNNWPWTFGQGTKVEFKR

Substitutions are numbered along the chain they refer to.

One assay concerns the target T2, human FGFR1c/human β-Klotho complex (FGF21 receptor) (human, UniProt P11362 22-822).
T2 construct: Both full-length proteins co-expressed on cells (HEK293T, CHO, L6); also called HuFGFR1c/Hu β-Klotho; huFGF21R
The assay can be described thus: flow cytometry, transfected HEK293T; mock-transfected cells 632.
The molecule B1 had a GeoMean of 13900.

For the next assay, the target named is T3, human FGFR1c (human, UniProt P11362 22-822).
T3 construct: Full length (GenBank NP-075598), expressed on transfected 293T cells; also called huFGFR1c; FGFR1c alone
The description is as above.
For the molecule B1, the GeoMean stood at 757.

For the next assay, the target named is T4, cynomologous monkey FGFR1c/cynomologous monkey β-Klotho (co-transfected) (cynomologous monkey).
T4 construct: whole, on cells; also called Cyno FGFR1c/Cyno β-Klotho
Described as above.
B1 came in with a GeoMean of 15800.

For another assay, the target named is T2, human FGFR1c/human β-Klotho complex …. The assay can be described thus: flow cytometry, transfected HEK293T; mock-transfected cells 723. In general terms: Flow cytometry measures light scatter and fluorescence of single cells or particles in a stream.
In turn, B2 yielded a GeoMean of 21000.

The next assay deals with T3, human FGFR1c. Described as above.
Molecule B2 registered a GeoMean of 747.

The target in another assay is T4, cynomologous monkey FGFR1c/cynomologous …. The assay is described as above.
Take B2: the GeoMean is 36500.

Another assay deals with T2, human FGFR1c/human β-Klotho complex …. Put plainly: flow cytometry, transfected HEK293T; mock-transfected cells 695.
B3 had a GeoMean of 16700.

The next assay addresses T4, cynomologous monkey FGFR1c/cynomologous …. The description is as above.
The molecule B3 came in with a GeoMean of 21600.

For the next assay, the target named is T5, huBeta_Klotho (1-736, 967-1044) (muBeta KLOTHO 735A-963S) (human; murine, UniProt Q86Z14 1-1044).
T5 construct: also called Chimera 11; Construct 11
Put plainly: flow cytometry, transfected HEK-293T.
On to B4, for which the binding result is on record as “binds”.

For B5, the binding result is given as “no binding”.

Take B6: the binding result is listed as “no binding”.

Take B1: the binding result is reported as “no binding”.

For the molecule B2, the binding result is reported as “no binding”.

As for B3, the binding result is recorded as “no binding”.

The target in another assay is T1, huBeta_Klotho (1-81, 523-1044) …. The assay can be described thus: flow cytometry, transfected HEK-293T.
Regarding B4, the binding result is reported as “no binding”.

For B5, the binding result is reported as “binds”.

As for B6, the binding result is given as “binds”.

As to B1, the binding result was “binds”.

B2: the binding result was “binds”.

On to B3, for which the binding result was “binds”.

The target of another assay is T6, huBeta_Klotho (1-81, 303-1044) (muBetaKLOTHO 82P-302S) (human; murine, UniProt Q86Z14 1-1044).
T6 construct: also called Chimera 4; Construct 4
The assay can be described thus: flow cytometry, transfected HEK-293T.
On to B4, for which the binding result is listed as “binds”.

B5: the binding result is “binds”.

Turning to B6, the binding result was “binds”.

For the molecule B1, the binding result is “binds”.

As to B2, the binding result is given as “binds”.

Regarding B3, the binding result is recorded as “binds”.

For a further assay, the target named is T7, huBeta_Klotho (1-193, 419-1044) (muBetaKLOTHO Y194-416G) (human; murine, UniProt Q86Z14 1-1044).
T7 construct: also called Chimera 5; Construct 5
The assay can be described thus: flow cytometry, transfected HEK-293T.
Consider B4, for which the binding result was “no binding”.

Take B5: the binding result is reported as “binds”.

B6: the binding result is on record as “binds”.

On to B1, for which the binding result was “binds”.

On to B2, for which the binding result is “binds”.

As for B3, the binding result is listed as “binds”.

For the next assay, the target named is T8, huBeta_Klotho (1-633, 852-1044) (muBeta KLOTHO 632G-849Q) (human; murine, UniProt Q86Z14 1-1044).
T8 construct: also called Chimera 10; Construct 10
Put plainly: flow cytometry, transfected HEK-293T.
Take B4: the binding result is on record as “binds”.

With B5, the binding result is “no binding”.

Turning to B6, the binding result was “binds”.

Consider B1, for which the binding result is on record as “no binding”.

Take B2: the binding result is “no binding”.

Take B3: the binding result was “no binding”.

The target of the next assay is T9, huBeta_Klotho (194-1044) (muBetaKLOTHO 1-L193) (murine; human, UniProt Q86Z14 1-1044).
T9 construct: also called Chimera 3; Construct 3
Put plainly: flow cytometry, transfected HEK-293T.
Turning to B4, the binding result is “no binding”.

With B5, the binding result is “binds”.

Consider B6, for which the binding result was “binds”.

For the molecule B1, the binding result is “binds”.

With B2, the binding result is “binds”.

Take B3: the binding result was “binds”.

A further assay has as its target T10, huBeta_Klotho (1-521, 738-1044) (muBeta KLOTHO 520P-735A) (human; murine, UniProt Q86Z14 1-1044).
T10 construct: also called Chimera 9; Construct 9
Put plainly: flow cytometry, transfected HEK-293T.
For B4, the binding result was “binds”.

For B5, the binding result is on record as “no binding”.

Take B6: the binding result is “binds”.

As to B1, the binding result is recorded as “no binding”.

Consider B2, for which the binding result is “no binding”.

For B3, the binding result is on record as “no binding”.

Another assay addresses T11, huBeta_Klotho(1-301, 509-1044) (muBetaKLOTHO S302-F506) (human; murine, UniProt Q86Z14 1-1044).
T11 construct: also called Chimera 6; Construct 6
The assay can be described thus: flow cytometry, transfected HEK-293T.
Take B4: the binding result is “no binding”.

As for B5, the binding result is given as “binds”.

Regarding B6, the binding result is reported as “binds”.

For B1, the binding result is on record as “binds”.

Take B2: the binding result is on record as “binds”.

For the molecule B3, the binding result was “binds”.

The next assay addresses T12, huBeta_Klotho (1-507) (muBetaKLOTHO 506F-1045S) (human; murine, UniProt Q99N32 1-1043).
T12 construct: also called Chimera 2; Construct 2
Put plainly: flow cytometry, transfected HEK-293T.
As to B4, the binding result was “binds”.

With B5, the binding result is listed as “no binding”.

Turning to B6, the binding result was “no binding”.

For B1, the binding result is “no binding”.

On to B2, for which the binding result is “no binding”.

With B3, the binding result is reported as “no binding”.

The record behind these values is patent publication US20120328616A1 (Amgen, published 2012).
